From article PMC7407834 (2020)
Ends that are not written are not given here.

Assays:
phage clone 1 peptide = biological target: T1, phage clone 1 peptide (phage-displayed); experiment: ELISA
T1 chain: GHIPTCLTPMCR

USPIO-LRPep2 = biological target: T2, USPIO-LRPep2 (not fully specified (N-terminus, bridges); cysteine pairing not given here; also: grafted to USPIO nanoparticle); experiment: ELISA
T2 chain: HPWCCGLRLDLR

- Kd (phage clone 1 peptide): 0.136 nM
- Kd (USPIO-LRPep2): 72.5 nM
B1: LDLR 22-788 (protein)
chain: not shown
